By Km is commonly meant the substrate concentration at which the rate is half of its maximum. One may read the kcat as the number of substrate molecules converted per active site and unit of time at saturation.

Data set [1] has as its system CC(=O)Oc1ccc([N+](=O)[O-])cc1. Put plainly: purified protein. The note with it: free enzyme; emulsified substrate.
The subject of data set [2] is CCCCCCCCCCCCCCCC(=O)Oc1ccc([N+](=O)[O-])cc1. The data set is described as follows: purified protein. The note with it: free enzyme; emulsified substrate.
For data set [3], the system named is CC(=O)Oc1ccc([N+](=O)[O-])cc1. The data set is described as follows: p-nitrophenol release, Lineweaver-Burk. Format: biochemical, Rhizopus microsporus. The note with it: RCLCYS, engineered disulfide C95-C214; free enzyme; emulsified substrate. An excerpt: (§1) p-nitrophenol release, Lineweaver-Burk on RCL (R. chinensis lipase)
The subject of data set [4] is CCCCCCCCCCCCCCCC(=O)Oc1ccc([N+](=O)[O-])cc1. Put plainly: p-nitrophenol release, Lineweaver-Burk. Format: biochemical, Rhizopus microsporus. Conditions: RCLCYS, engineered disulfide C95-C214; free enzyme; emulsified substrate.
From the text: as §1

Regarding “RCL (R. chinensis lipase) (Rhizopus microsporus var. chinensis)”, the values for the Km in data set [1] and in data set [2] were 295 ± 6 µM and 304 ± 7 µM, respectively. Further, the kcat in data set [1] turned out to be 17.7 ± 0.2 s⁻¹; in data set [2], 18.9 ± 0.4 s⁻¹.
For “RCL (R. chinensis lipase) (Rhizopus microsporus var. chinensis; F215C/F334C)”, in data set [3], the Km turned out to be 298 ± 8 µM and the kcat worked out at 17.3 ± 0.2 s⁻¹. Also, in data set [4], the Km turned out to be 450 ± 6 µM and the kcat came out at 18.4 ± 0.2 s⁻¹.
